Literature values, collected in publication PMC3079778.

What was measured:
[1] = target: CYP1A2 (Oryctolagus cuniculus) (UniProt P00187); assay: FRET
[2] = target: CYP2B4 (Oryctolagus cuniculus) (UniProt P00178); assay: FRET
Chain of UniProt P00178 (P00178 whole entry): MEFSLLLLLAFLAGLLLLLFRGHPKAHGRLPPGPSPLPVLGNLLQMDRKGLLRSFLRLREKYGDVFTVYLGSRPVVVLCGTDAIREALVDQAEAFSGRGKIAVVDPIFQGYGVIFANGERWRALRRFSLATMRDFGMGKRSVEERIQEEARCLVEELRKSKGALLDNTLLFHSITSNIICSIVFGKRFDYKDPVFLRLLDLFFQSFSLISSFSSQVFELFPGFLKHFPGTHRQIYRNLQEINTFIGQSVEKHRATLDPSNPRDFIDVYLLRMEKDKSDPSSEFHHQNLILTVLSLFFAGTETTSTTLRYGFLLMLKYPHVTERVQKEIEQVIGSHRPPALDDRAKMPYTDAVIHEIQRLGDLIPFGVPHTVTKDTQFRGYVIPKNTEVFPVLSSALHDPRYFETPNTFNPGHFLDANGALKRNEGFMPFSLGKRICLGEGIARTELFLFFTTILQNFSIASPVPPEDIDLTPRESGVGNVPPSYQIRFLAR

Chain of UniProt P00187 (P00187 2-516): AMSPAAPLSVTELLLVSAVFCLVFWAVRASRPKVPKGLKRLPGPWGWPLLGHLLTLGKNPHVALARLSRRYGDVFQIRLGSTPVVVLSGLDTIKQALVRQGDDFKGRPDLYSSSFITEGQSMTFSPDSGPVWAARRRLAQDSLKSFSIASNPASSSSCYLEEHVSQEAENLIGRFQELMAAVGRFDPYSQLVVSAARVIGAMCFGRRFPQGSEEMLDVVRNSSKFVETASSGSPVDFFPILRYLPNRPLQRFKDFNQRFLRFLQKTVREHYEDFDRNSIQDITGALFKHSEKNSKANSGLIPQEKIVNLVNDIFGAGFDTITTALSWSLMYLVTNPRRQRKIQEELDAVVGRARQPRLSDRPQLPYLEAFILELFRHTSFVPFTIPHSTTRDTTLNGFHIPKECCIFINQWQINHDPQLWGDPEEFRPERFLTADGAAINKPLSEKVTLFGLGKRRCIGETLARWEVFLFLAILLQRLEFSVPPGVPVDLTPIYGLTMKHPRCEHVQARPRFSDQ

Kd [1]: 40 nM | Kd [2]: 40 nM
Substance: CPR (from UniProt P00389)
